The text below walks through data of patent publication US20120014998A1.

The assay deals with GroEL (E. coli Cpn60) (E. coli) (UniProt P0A6F5). Nature of the assay: cell-based or functional assay.
GroEL (E. coli Cpn60) (E. coli), sequence (P0A6F5 2-548 limits assumed): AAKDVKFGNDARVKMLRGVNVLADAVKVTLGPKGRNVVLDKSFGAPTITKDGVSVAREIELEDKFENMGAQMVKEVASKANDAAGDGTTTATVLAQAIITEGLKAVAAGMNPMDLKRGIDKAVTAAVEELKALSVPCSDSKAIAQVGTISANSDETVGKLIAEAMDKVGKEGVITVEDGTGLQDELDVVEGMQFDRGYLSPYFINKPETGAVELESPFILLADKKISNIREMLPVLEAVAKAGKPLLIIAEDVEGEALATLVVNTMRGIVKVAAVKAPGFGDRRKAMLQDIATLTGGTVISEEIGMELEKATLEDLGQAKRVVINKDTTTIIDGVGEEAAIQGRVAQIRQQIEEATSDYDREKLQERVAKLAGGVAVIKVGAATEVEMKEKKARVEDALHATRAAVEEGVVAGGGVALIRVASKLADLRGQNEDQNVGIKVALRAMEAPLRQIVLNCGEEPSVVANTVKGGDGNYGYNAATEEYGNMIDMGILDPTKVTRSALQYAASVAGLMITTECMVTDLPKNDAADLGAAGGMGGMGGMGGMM

B1: E. coli Cpn10 (GroES) (protein)
chain: MNIRPLHDRVIVKRKEVETKSAGGIVLTGSAAAKSTRGEVLAVGNGRILENGEVKPLDVKVGDIVIFNDGYGVKSEKIDNEEVLIMSESDILAIVEA
In the case of B1, the Refolding activity (% of Ala-Cpn10) (% of Ala-Cpn10) was determined as 109.
